Assay results as given in the supplement of paper PMC9732359.
± gives the uncertainty stated by the source.

Experiment: protein stability index of a GFP-peptide fusion (yeast GPS) (PSI 1-4); higher = more stable; sorted into four equal gates, so the index is relative within each strain
How it was run: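 Tiled 17-residue yeast protein peptides were fused downstream of GFP in a plasmid that also expresses Cherry, and the pooled library was carried in yeast. Mid-log cultures in leucine-free medium were sorted into four equal gates by GFP/Cherry fluorescence ratio, and plasmids from each gate were PCR-amplified and Illumina-sequenced, with reads assigned to strains by barcodes. The protein stability index for each peptide was each gate's read frequency times its gate number, summed.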

Row | Sequence | protein stability index (doa10∆) | protein stability index (pdr5∆) | protein stability index (san1∆) | protein stability index (ubr1∆)
1 | TTESNSRLKALNLQFKA [YLR335W/NUP2] | 3.25 ± 0.11 | 3.04 ± 0.064 | 3.15 ± 0.066 | 2.98 ± 0.073
2 | TNWIIYPLWVMAKQLIR [CSN12] | 1.39 ± 0.11 | 1.2 ± 0.13 | – | 1.24 ± 0.11
3 | QACGLVKNLSLMSCISV [RPB2] | 1.49 ± 0.073 | 1.75 ± 0.06 | 2.44 ± 0.083 | 2.17 ± 0.075
4 | CAINSKSRGSDLQYLGE [RRP6] | 3.11 ± 0.06 | 3.18 ± 0.068 | 2.7 ± 0.069 | 3.2 ± 0.053
5 | FGNIQKVVNFWLLHNGF [RPO21] | 2.26 ± 0.18 | 1.83 ± 0.099 | 1.99 ± 0.19 | 1.41 ± 0.073
6 | FLKLANGGKFSKSNLIH [RGR1] | 2.65 ± 0.049 | 2.55 ± 0.061 | 2.87 ± 0.077 | 2.79 ± 0.059
7 | VGKRVRYLVGGNKIQKV [RPS7A] | 1.25 ± 0.084 | 1.98 ± 0.18 | 1.49 ± 0.26 | 1.7 ± 0.17
8 | KSSNDTIEHAADITDGN [YCG1] | 2.98 ± 0.25 | 3.16 ± 0.2 | 3.23 ± 0.17 | 3.3 ± 0.15
9 | RCMMAAQYFYSGAYSYP [DIS3] | 2.14 ± 0.12 | 2.31 ± 0.11 | 1.81 ± 0.2 | 2.12 ± 0.11
10 | MIATNVAARGLDIPNVS [PRP28] | 2.58 ± 0.17 | – | 2.2 ± 0.16 | –
11 | AVPLQIVSPQSNKPCMG [RPO21] | 1.72 ± 0.059 | 1.71 ± 0.038 | 2.03 ± 0.065 | 1.78 ± 0.035
12 | SSETDDDHSQVINPQQL [DSN1] | 2.99 ± 0.048 | 3.13 ± 0.05 | 2.99 ± 0.044 | 3.08 ± 0.048
13 | ERVQSDENKDDELVKLL [SRP68] | 3.52 ± 0.17 | 3.42 ± 0.12 | – | 2.96 ± 0.23
14 | SQSKMMSSQISSLIPHC [MTR3] | 2.35 ± 0.057 | 2.09 ± 0.039 | 2.21 ± 0.048 | 2.31 ± 0.042
15 | GVKNNLLTPKSGEPIIA [RPO31] | – | – | – | 2.62 ± 0.22
16 | TKNDAGSKQILKTEAAN [BRR2] | 2.85 ± 0.055 | 2.95 ± 0.054 | 2.93 ± 0.039 | 3.04 ± 0.055
17 | KKRKIHNGREGSIEEPE [MCD1] | 3.26 ± 0.066 | 3.24 ± 0.06 | 3.17 ± 0.051 | 3.27 ± 0.042
18 | QRMHAIHEIDERLAKVN [NNF1] | 1.44 ± 0.093 | 2.59 ± 0.14 | 2.42 ± 0.085 | 2.14 ± 0.061
19 | RNLQMGLRNQNMVRNNN [GRR1] | 2.62 ± 0.088 | 2.72 ± 0.093 | 2.63 ± 0.063 | 2.54 ± 0.055
20 | QWRYLYDTQLKVSPEEL [ARP7] | 1.98 ± 0.042 | 1.97 ± 0.042 | 2.08 ± 0.056 | 1.67 ± 0.049
21 | MVNTQQPIVTGTSVISM [PRE4] | 2.1 ± 0.26 | 2.69 ± 0.23 | 1.95 ± 0.14 | 1.96 ± 0.2
22 | SIVHINSQERVQDLGSA [SIR2] | 2.65 ± 0.069 | 3.14 ± 0.064 | 2.99 ± 0.067 | 2.59 ± 0.048
23 | GRSDSNTEEKAELQSNL [YGL100W/SEH1] | 1.61 ± 0.037 | 1.64 ± 0.051 | 1.4 ± 0.14 | 1.52 ± 0.039
24 | CARFLGNRGFSIGINDV [RPO31] | 2.32 ± 0.21 | – | – | 2.88 ± 0.21
25 | MEERDGAKFENIVHNFK [AAR2] | 3.09 ± 0.1 | 2.51 ± 0.097 | 2.41 ± 0.12 | 1.88 ± 0.056
26 | PTDSSKILQKRSISKEL [SIR3] | 2.76 ± 0.066 | 2.98 ± 0.086 | 3.02 ± 0.065 | 2.85 ± 0.081
27 | GRSRDGGLRFGEMERDC [RPB2] | 2.86 ± 0.29 | – | 2.83 ± 0.17 | –
28 | LSNIEAQFLRSVVHPGE [RPO21] | 2.77 ± 0.1 | 2.73 ± 0.21 | 2.45 ± 0.1 | 2.97 ± 0.14
